US20170355992A1

Assays:
[1] = target: prothrombin with an Alexa532 on the 271 cleavage site that was attached by mutating the arginine to a cysteine (UniProt P00734); assay: FRET, Alexa488-FVa donor and Alexa532 prothrombin acceptor, buffer control
[2] = target: prothrombin with an Alexa532 on the 271 cleavage site that was attached by mutating the arginine to a cysteine (UniProt P00734); assay: FRET, Alexa488-FVa donor and Alexa532 prothrombin acceptor, with 2.5 µM RNA aptamer T18.3

emission percentage (FRET) [1]: 16.3% | emission percentage (FRET) [2]: 17.5%
Substance: FVa with Alexa488 on the 539 residue (from UniProt P12259 29-2224)
